The results in this text go back to article PMC13397619.

B1: NLV2 TCR alpha chain (CDR3α only) (parent)
chain: AGPMKTSYDKVI
partner: NLVGMVATV

The variants in this experiment derive from B1. Briefly: T-Switch: Jurkat TCRβ−/− cells expressing a CDR3 saturation-mutagenesis library, stained with two peptide-HLA-A*02:01 tetramers (original and novel peptide) plus anti-CD3, FACS-sorted into four gates, gDNA sequenced. Conditions: with HLA-A*02:01 with peptide … (NLV 2-2, the original bait), tetramers 1 µg/mL, 30 min on ice, DP and SW gates expanded about 10 days between rounds ('two to three rounds of selection' in the Methods), gate SP: higher = more of the variant in the gate that binds the original peptide and not the novel one = retained original binding. Fold enrichment of the CDR3 variant in one FACS gate of a two-tetra, unresolved parent, parent is a CDR3 fragment, scale: fold enrichment, numbering: sequential-on-construct, sequence ….
For the variant […] (CDR3 as printed); I12H derived by comparing it with the table's wild-type CDR3 AGPMKTSYDKVI, the enrichment came to 0.
Then […] (CDR3 as printed); K10Q derived by comparing it with the table's wild-type CDR3 AGPMKTSYDKVI, with 1.98; and […] (CDR3 as printed); S7M derived by comparing it with the table's wild-type CDR3 AGPMKTSYDKVI, with 0.
Then […] (CDR3 as printed); K5H derived by comparing it with the table's wild-type CDR3 AGPMKTSYDKVI, with 4.24.
Then […] (CDR3 as printed); P3V derived by comparing it with the table's wild-type CDR3 AGPMKTSYDKVI, with 0.124; and […] (CDR3 as printed); K10N derived by comparing it with the table's wild-type CDR3 AGPMKTSYDKVI, with 0; and […] (CDR3 as printed); S7R derived by comparing it with the table's wild-type CDR3 AGPMKTSYDKVI, with 0.
Regarding […] (CDR3 as printed); D9Q derived by comparing it with the table's wild-type CDR3 AGPMKTSYDKVI, the enrichment is 0.
Then […] (CDR3 as printed); I12K derived by comparing it with the table's wild-type CDR3 AGPMKTSYDKVI, with 8.2.
The result for […] (CDR3 as printed); M4A derived by comparing it with the table's wild-type CDR3 AGPMKTSYDKVI reads 8.93; that for […] (CDR3 as printed); P3S derived by comparing it with the table's wild-type CDR3 AGPMKTSYDKVI, 0; that for […] (CDR3 as printed); P3I derived by comparing it with the table's wild-type CDR3 AGPMKTSYDKVI, 1.59.
As for […] (CDR3 as printed); A1S derived by comparing it with the table's wild-type CDR3 AGPMKTSYDKVI, the enrichment turned out to be 0.551.
The result for […] (CDR3 as printed); S7L derived by comparing it with the table's wild-type CDR3 AGPMKTSYDKVI reads 0; that for […] (CDR3 as printed); I12G derived by comparing it with the table's wild-type CDR3 AGPMKTSYDKVI, 0.
The result for […] (CDR3 as printed); I12C derived by comparing it with the table's wild-type CDR3 AGPMKTSYDKVI reads 0.
As to […] (CDR3 as printed); D9C derived by comparing it with the table's wild-type CDR3 AGPMKTSYDKVI, the enrichment is 0.
The result for […] (CDR3 as printed); G2C derived by comparing it with the table's wild-type CDR3 AGPMKTSYDKVI reads 0; that for […] (CDR3 as printed); S7Q derived by comparing it with the table's wild-type CDR3 AGPMKTSYDKVI, 0; that for […] (CDR3 as printed); T6H derived by comparing it with the table's wild-type CDR3 AGPMKTSYDKVI, 0.
Then […] (CDR3 as printed); P3N derived by comparing it with the table's wild-type CDR3 AGPMKTSYDKVI, with 0.173.
As to […] (CDR3 as printed); A1W derived by comparing it with the table's wild-type CDR3 AGPMKTSYDKVI, the enrichment was determined as 0.
For […] (CDR3 as printed); S7I derived by comparing it with the table's wild-type CDR3 AGPMKTSYDKVI, the enrichment was found to be 0.
Then […] (CDR3 as printed); S7F derived by comparing it with the table's wild-type CDR3 AGPMKTSYDKVI, with 0; and […] (CDR3 as printed); I12N derived by comparing it with the table's wild-type CDR3 AGPMKTSYDKVI, with 0.107; and […] (CDR3 as printed); G2M derived by comparing it with the table's wild-type CDR3 AGPMKTSYDKVI, with 0.715.
Then […] (CDR3 as printed); K5I derived by comparing it with the table's wild-type CDR3 AGPMKTSYDKVI, with 3.95; and […] (CDR3 as printed); K5P derived by comparing it with the table's wild-type CDR3 AGPMKTSYDKVI, with 9.21.
Then […] (CDR3 as printed); S7T derived by comparing it with the table's wild-type CDR3 AGPMKTSYDKVI, with 0; and […] (CDR3 as printed); K10H derived by comparing it with the table's wild-type CDR3 AGPMKTSYDKVI, with 0.422.
As for […] (CDR3 as printed); S7D derived by comparing it with the table's wild-type CDR3 AGPMKTSYDKVI, the enrichment was found to be 0.
The result for […] (CDR3 as printed); K10I derived by comparing it with the table's wild-type CDR3 AGPMKTSYDKVI reads 0.
Then […] (CDR3 as printed); D9S derived by comparing it with the table's wild-type CDR3 AGPMKTSYDKVI, with 0; and […] (CDR3 as printed); I12T derived by comparing it with the table's wild-type CDR3 AGPMKTSYDKVI, with 0.
Turning to […] (CDR3 as printed); G2L derived by comparing it with the table's wild-type CDR3 AGPMKTSYDKVI, the enrichment came to 0.
Then […] (CDR3 as printed); M4C derived by comparing it with the table's wild-type CDR3 AGPMKTSYDKVI, with 0.
Then […] (CDR3 as printed); I12W derived by comparing it with the table's wild-type CDR3 AGPMKTSYDKVI, with 0; and […] (CDR3 as printed); S7G derived by comparing it with the table's wild-type CDR3 AGPMKTSYDKVI, with 0; and […] (CDR3 as printed); S7E derived by comparing it with the table's wild-type CDR3 AGPMKTSYDKVI, with 0.
Consider […] (CDR3 as printed); G2D derived by comparing it with the table's wild-type CDR3 AGPMKTSYDKVI, for which the enrichment is 0.
Then […] (CDR3 as printed); I12S derived by comparing it with the table's wild-type CDR3 AGPMKTSYDKVI, with 0.
Then […] (CDR3 as printed); M4S derived by comparing it with the table's wild-type CDR3 AGPMKTSYDKVI, with 7.99; and […] (CDR3 as printed); K5E derived by comparing it with the table's wild-type CDR3 AGPMKTSYDKVI, with 21.3; and […] (CDR3 as printed); S7C derived by comparing it with the table's wild-type CDR3 AGPMKTSYDKVI, with 0.
Take […] (CDR3 as printed); G2A derived by comparing it with the table's wild-type CDR3 AGPMKTSYDKVI: the enrichment was 0.952.
The result for […] (CDR3 as printed); G2K derived by comparing it with the table's wild-type CDR3 AGPMKTSYDKVI reads 0; that for […] (CDR3 as printed); P3D derived by comparing it with the table's wild-type CDR3 AGPMKTSYDKVI, 0.
Then […] (CDR3 as printed); D9R derived by comparing it with the table's wild-type CDR3 AGPMKTSYDKVI, with 0; and […] (CDR3 as printed); G2V derived by comparing it with the table's wild-type CDR3 AGPMKTSYDKVI, with 0.
Then […] (CDR3 as printed); T6C derived by comparing it with the table's wild-type CDR3 AGPMKTSYDKVI, with 0; and […] (CDR3 as printed); A1Y derived by comparing it with the table's wild-type CDR3 AGPMKTSYDKVI, with 0.416.
On to […] (CDR3 as printed); K5D derived by comparing it with the table's wild-type CDR3 AGPMKTSYDKVI, for which the enrichment was 37.8.
The result for […] (CDR3 as printed); K5N derived by comparing it with the table's wild-type CDR3 AGPMKTSYDKVI reads 0; that for […] (CDR3 as printed); G2P derived by comparing it with the table's wild-type CDR3 AGPMKTSYDKVI, 0.351; that for […] (CDR3 as printed); T6E derived by comparing it with the table's wild-type CDR3 AGPMKTSYDKVI, 0.
Then […] (CDR3 as printed); K5W derived by comparing it with the table's wild-type CDR3 AGPMKTSYDKVI, with 5.12; and […] (CDR3 as printed); A1T derived by comparing it with the table's wild-type CDR3 AGPMKTSYDKVI, with 0.262.
Then […] (CDR3 as printed); I12E derived by comparing it with the table's wild-type CDR3 AGPMKTSYDKVI, with 0.34.
Take […] (CDR3 as printed); K10P derived by comparing it with the table's wild-type CDR3 AGPMKTSYDKVI: the enrichment was determined as 0.
The result for […] (CDR3 as printed); D9L derived by comparing it with the table's wild-type CDR3 AGPMKTSYDKVI reads 0; that for […] (CDR3 as printed); P3A derived by comparing it with the table's wild-type CDR3 AGPMKTSYDKVI, 0; that for […] (CDR3 as printed); P3L derived by comparing it with the table's wild-type CDR3 AGPMKTSYDKVI, 0.
The result for […] (CDR3 as printed); D9M derived by comparing it with the table's wild-type CDR3 AGPMKTSYDKVI reads 0.433; that for […] (CDR3 as printed); S7N derived by comparing it with the table's wild-type CDR3 AGPMKTSYDKVI, 0.
Then […] (CDR3 as printed); K5R derived by comparing it with the table's wild-type CDR3 AGPMKTSYDKVI, with 0.
Consider […] (CDR3 as printed); K10C derived by comparing it with the table's wild-type CDR3 AGPMKTSYDKVI, for which the enrichment stood at 0.162.
The result for […] (CDR3 as printed); K10E derived by comparing it with the table's wild-type CDR3 AGPMKTSYDKVI reads 0.
[…] (CDR3 as printed); M4T derived by comparing it with the table's wild-type CDR3 AGPMKTSYDKVI: the enrichment stood at 12.4.
Then […] (CDR3 as printed); P3H derived by comparing it with the table's wild-type CDR3 AGPMKTSYDKVI, with 0; and […] (CDR3 as printed); G2H derived by comparing it with the table's wild-type CDR3 AGPMKTSYDKVI, with 0; and […] (CDR3 as printed); S7H derived by comparing it with the table's wild-type CDR3 AGPMKTSYDKVI, with 0.
The result for […] (CDR3 as printed); I12D derived by comparing it with the table's wild-type CDR3 AGPMKTSYDKVI reads 0; that for […] (CDR3 as printed); S7V derived by comparing it with the table's wild-type CDR3 AGPMKTSYDKVI, 0.
In the case of […] (CDR3 as printed); M4P derived by comparing it with the table's wild-type CDR3 AGPMKTSYDKVI, the enrichment amounted to 0.
For the variant […] (CDR3 as printed); I12Y derived by comparing it with the table's wild-type CDR3 AGPMKTSYDKVI, the enrichment is 0.
The result for […] (CDR3 as printed); M4F derived by comparing it with the table's wild-type CDR3 AGPMKTSYDKVI reads 0; that for […] (CDR3 as printed); M4G derived by comparing it with the table's wild-type CDR3 AGPMKTSYDKVI, 0.
Then […] (CDR3 as printed); G2T derived by comparing it with the table's wild-type CDR3 AGPMKTSYDKVI, with 10.1; and […] (CDR3 as printed); D9E derived by comparing it with the table's wild-type CDR3 AGPMKTSYDKVI, with 0.
Then […] (CDR3 as printed); D9I derived by comparing it with the table's wild-type CDR3 AGPMKTSYDKVI, with 0; and […] (CDR3 as printed); D9P derived by comparing it with the table's wild-type CDR3 AGPMKTSYDKVI, with 0; and […] (CDR3 as printed); S7W derived by comparing it with the table's wild-type CDR3 AGPMKTSYDKVI, with 0.
Turning to […] (CDR3 as printed); P3K derived by comparing it with the table's wild-type CDR3 AGPMKTSYDKVI, the enrichment is 0.
Then […] (CDR3 as printed); P3E derived by comparing it with the table's wild-type CDR3 AGPMKTSYDKVI, with 0.526.
